The text below walks through data of the Human Domainome abundance scans (Beltran et al. 2025).

The chains are these.
B1: GA-binding protein alpha chain, residues 172 to 250; numbered along this chain, Q06546 (parent)
chain: GYRKEQERLGIPYDPIQWSTDQVLHWVVWVMKEFSMTDIDLTTLNISGRELCSLNQEDFFQRVPRGEILWSHLELLRKY

± gives the uncertainty stated by the source.

Variants of B1 are the subject of the data set. As to the kind of experiment: abundance fitness (aPCA) (normalised: wild type 0, dead -1); higher = more abundant; growth selection in yeast, the domain comes from the species named. Conditions: Homo sapiens.
As to GYRKEQERLGIPYDPIQWSTDQVLHWVVWVMKEFSQTDIDLTTLNISGRELCSLNQEDFFQRVPRGEILWSHLELLRKY, the abundance fitness is -0.08 ± 0.054.

For GYRKEQERLGIPYDPIQWSTDQVLHWVVWVMKEFSWTDIDLTTLNISGRELCSLNQEDFFQRVPRGEILWSHLELLRKY, the abundance fitness was -0.118 ± 0.04.

For GYRKEQERLGIPYDPIQWSTDQVLHWVVWVMKEFSRTDIDLTTLNISGRELCSLNQEDFFQRVPRGEILWSHLELLRKY, the abundance fitness is -0.029 ± 0.028.

As to GYRKEQERLGIPYDPIQWSTDQVLHWVVWVMKEFSETDIDLTTLNISGRELCSLNQEDFFQRVPRGEILWSHLELLRKY, the abundance fitness was -0.031 ± 0.054.

Turning to GYRKEQERLGIPYDPIQWSTDQVLHWVVWVMKEFSYTDIDLTTLNISGRELCSLNQEDFFQRVPRGEILWSHLELLRKY, the abundance fitness was -0.053 ± 0.1.

On to GYRKEQERLGIPYDPIQWSTDQVLHWVVWVMKEFSCTDIDLTTLNISGRELCSLNQEDFFQRVPRGEILWSHLELLRKY, for which the abundance fitness came out at 0.081 ± 0.048.

As for GYRKEQERLGIPYDPIQWSTDQVLHWVVWVMKEFSITDIDLTTLNISGRELCSLNQEDFFQRVPRGEILWSHLELLRKY, the abundance fitness was -0.05 ± 0.068.

Consider GYRKEQERLGIPYDPIQWSTDQVLHWVVWVMKEFSATDIDLTTLNISGRELCSLNQEDFFQRVPRGEILWSHLELLRKY, for which the abundance fitness is -0.025 ± 0.039.

Consider GYRKEQERLGIPYDPIQWSTDQVLHWVVWVMKEFSFTDIDLTTLNISGRELCSLNQEDFFQRVPRGEILWSHLELLRKY, for which the abundance fitness is -0.09 ± 0.058.

For the variant GYRKEQERLGIPYDPIQWSTDQVLHWVVWVMKEFSGTDIDLTTLNISGRELCSLNQEDFFQRVPRGEILWSHLELLRKY, the abundance fitness was -0.182 ± 0.032.

Consider GYRKEQERLGIPYDPIQWSTDQVLHWVVWVMKEFSVTDIDLTTLNISGRELCSLNQEDFFQRVPRGEILWSHLELLRKY, for which the abundance fitness is -0.013 ± 0.034.

GYRKEQERLGIPYDPIQWSTDQVLHWVVWVMKEFSKTDIDLTTLNISGRELCSLNQEDFFQRVPRGEILWSHLELLRKY: the abundance fitness was -0.062 ± 0.043.

As to GYRKEQERLGIPYDPIQWSTDQVLHWVVWVMKEFSNTDIDLTTLNISGRELCSLNQEDFFQRVPRGEILWSHLELLRKY, the abundance fitness is -0.189 ± 0.12.

In the case of GYRKEQERLGIPYDPIQWSTDQVLHWVVWVMKEFSPTDIDLTTLNISGRELCSLNQEDFFQRVPRGEILWSHLELLRKY, the abundance fitness was -0.196 ± 0.055.

Turning to GYRKEQERLGIPYDPIQWSTDQVLHWVVWVMKEFSHTDIDLTTLNISGRELCSLNQEDFFQRVPRGEILWSHLELLRKY, the abundance fitness is -0.193 ± 0.075.

For GYRKEQERLGIPYDPIQWSTDQVLHWVVWVMKEFSLTDIDLTTLNISGRELCSLNQEDFFQRVPRGEILWSHLELLRKY, the abundance fitness is 0.043 ± 0.038.

For the variant GYRKEQERLGIPYDPIQWSTDQVLHWVVWVMKEFSDTDIDLTTLNISGRELCSLNQEDFFQRVPRGEILWSHLELLRKY, the abundance fitness was -0.019 ± 0.05.

As to GYRKEQERLGIPYDPIQWSTDQVLHWVVWVMKEFSSTDIDLTTLNISGRELCSLNQEDFFQRVPRGEILWSHLELLRKY, the abundance fitness is -0.102 ± 0.045.

GYRKEQERLGIPYDPIQWSTDQVLHWVVWVMKEFAMTDIDLTTLNISGRELCSLNQEDFFQRVPRGEILWSHLELLRKY: the abundance fitness is -0.086 ± 0.046.

For the variant GYRKEQERLGIPYDPIQWSTDQVLHWVVWVMKEFWMTDIDLTTLNISGRELCSLNQEDFFQRVPRGEILWSHLELLRKY, the abundance fitness was -0.335 ± 0.044.

In the case of GYRKEQERLGIPYDPIQWSTDQVLHWVVWVMKEFMMTDIDLTTLNISGRELCSLNQEDFFQRVPRGEILWSHLELLRKY, the abundance fitness is -0.14 ± 0.064.

For the variant GYRKEQERLGIPYDPIQWSTDQVLHWVVWVMKEFVMTDIDLTTLNISGRELCSLNQEDFFQRVPRGEILWSHLELLRKY, the abundance fitness was -0.165 ± 0.054.

Regarding GYRKEQERLGIPYDPIQWSTDQVLHWVVWVMKEFYMTDIDLTTLNISGRELCSLNQEDFFQRVPRGEILWSHLELLRKY, the abundance fitness was -0.205 ± 0.086.

Consider GYRKEQERLGIPYDPIQWSTDQVLHWVVWVMKEFNMTDIDLTTLNISGRELCSLNQEDFFQRVPRGEILWSHLELLRKY, for which the abundance fitness is -0.009 ± 0.051.

For the variant GYRKEQERLGIPYDPIQWSTDQVLHWVVWVMKEFPMTDIDLTTLNISGRELCSLNQEDFFQRVPRGEILWSHLELLRKY, the abundance fitness was -0.091 ± 0.036.

Regarding GYRKEQERLGIPYDPIQWSTDQVLHWVVWVMKEFHMTDIDLTTLNISGRELCSLNQEDFFQRVPRGEILWSHLELLRKY, the abundance fitness turned out to be 0.008 ± 0.063.

As for GYRKEQERLGIPYDPIQWSTDQVLHWVVWVMKEFCMTDIDLTTLNISGRELCSLNQEDFFQRVPRGEILWSHLELLRKY, the abundance fitness is -0.044 ± 0.055.

As to GYRKEQERLGIPYDPIQWSTDQVLHWVVWVMKEFRMTDIDLTTLNISGRELCSLNQEDFFQRVPRGEILWSHLELLRKY, the abundance fitness is -0.045 ± 0.028.

For the variant GYRKEQERLGIPYDPIQWSTDQVLHWVVWVMKEFGMTDIDLTTLNISGRELCSLNQEDFFQRVPRGEILWSHLELLRKY, the abundance fitness came to 0.018 ± 0.034.

For the variant GYRKEQERLGIPYDPIQWSTDQVLHWVVWVMKEFTMTDIDLTTLNISGRELCSLNQEDFFQRVPRGEILWSHLELLRKY, the abundance fitness was -0.013 ± 0.052.

Turning to GYRKEQERLGIPYDPIQWSTDQVLHWVVWVMKEFLMTDIDLTTLNISGRELCSLNQEDFFQRVPRGEILWSHLELLRKY, the abundance fitness is -0.204 ± 0.031.

In the case of GYRKEQERLGIPYDPIQWSTDQVLHWVVWVMKEFEMTDIDLTTLNISGRELCSLNQEDFFQRVPRGEILWSHLELLRKY, the abundance fitness was -0.035 ± 0.052.

Take GYRKEQERLGIPYDPIQWSTDQVLHWVVWVMKEFQMTDIDLTTLNISGRELCSLNQEDFFQRVPRGEILWSHLELLRKY: the abundance fitness worked out at 0.014 ± 0.051.

As to GYRKEQERLGIPYDPIQWSTDQVLHWVVWVMKEFKMTDIDLTTLNISGRELCSLNQEDFFQRVPRGEILWSHLELLRKY, the abundance fitness is -0.028 ± 0.062.
